The values that follow come from US20240132578A1.

What all share (experiment): cell-based or functional assay
The target of assay [1] is aMLV envelope (negative control).
The target in assay [2] is HIV-1 92UG005 envelope glycoprotein (Env) on pseudovirus (HIV-1).
Assay [3] concerns the target HIV-1 92TH021 envelope glycoprotein (Env) on pseudovirus (HIV-1).
Assay [4] has as its target HIV-1 APV13 envelope glycoprotein (Env) on pseudovirus (HIV-1).
In assay [5] the target is HIV-1 MGRM-C-027 envelope glycoprotein (Env) on pseudovirus (HIV-1).
For assay [6], the target named is HIV-1 92UG024 envelope glycoprotein (Env) on pseudovirus (HIV-1).
Assay [7] addresses HIV-1 APV17 envelope glycoprotein (Env) on pseudovirus (HIV-1).
Assay [8] concerns the target HIV-1 JRFL envelope glycoprotein (Env) on pseudovirus (HIV-1).
Assay [9] addresses HIV-1 MGRM-A-010 envelope glycoprotein (Env) on pseudovirus (HIV-1).
For assay [10], the target named is HIV-1 MGRM-C-028 envelope glycoprotein (Env) on pseudovirus (HIV-1).
Assay [11] deals with HIV-1 envelope glycoprotein (Env) of isolate MGRM-Chronic-B-010, on pseudovirus (HIV-1).
The target of assay [12] is HIV-1 93UG077 Env (HIV-1).
Assay [13] concerns the target HIV-1 envelope glycoprotein (Env) of isolate MG RM-A-002, subtype A (HIV-1).
The target of assay [14] is HIV-1 Env of isolate MGRM-F1-014 (pseudovirus) (HIV-1).
Assay [15] concerns the target HIV-1 APV13 Env (HIV-1).
The target in assay [16] is HIV-1 envelope glycoprotein (Env) of isolate 92WR026, subtype A (HIV-1).
In assay [17] the target is HIV-1 envelope glycoprotein (Env) of isolate 92BR020, on pseudovirus (HIV-1).
For assay [18], the target named is HIV-1 Env of pseudovirus MGRM-F1-013 (clade F) (HIV-1).
Assay [19] has as its target HIV-1 JR-CSF Env V292A (HIV-1 (isolate JR-CSF, clade B)) (UniProt P20871).
The target of assay [20] is HIV-1 JR-CSF envelope protein (Env) on pseudotyped virus (HIV-1 isolate JR-CSF) (UniProt P20871).
Assay [21] addresses HIV-1 SF162 envelope protein (Env) on pseudotyped virus (HIV-1 isolate SF162) (UniProt P19550).
In assay [22] the target is HIV-1 93IN905 envelope protein (Env) on pseudotyped virus (HIV-1 strain 93IN905).
The target of assay [23] is HIV-1 92TH021 envelope protein (Env) on pseudotyped virus (HIV-1 strain 92TH021).

Sequence of PGT-144 (4970_K22) (antibody) (VH): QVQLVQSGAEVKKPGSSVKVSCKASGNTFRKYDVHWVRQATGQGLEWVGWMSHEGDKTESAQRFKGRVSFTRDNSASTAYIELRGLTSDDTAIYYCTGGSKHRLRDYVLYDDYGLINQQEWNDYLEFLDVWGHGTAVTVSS
Sequence of PGT-144 (4970_K22) (antibody) (VL): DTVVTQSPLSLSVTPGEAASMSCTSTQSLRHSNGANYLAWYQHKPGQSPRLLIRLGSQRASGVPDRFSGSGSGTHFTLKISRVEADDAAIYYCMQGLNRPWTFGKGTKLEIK
Sequence of PGT-141 (4964_G22; 4993_K13) (antibody) (VH): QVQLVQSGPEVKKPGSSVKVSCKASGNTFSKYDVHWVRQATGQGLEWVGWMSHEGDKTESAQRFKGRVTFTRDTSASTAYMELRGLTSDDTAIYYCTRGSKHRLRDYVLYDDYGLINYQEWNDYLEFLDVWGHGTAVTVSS
Sequence of PGT-141 (4964_G22; 4993_K13) (antibody) (VL): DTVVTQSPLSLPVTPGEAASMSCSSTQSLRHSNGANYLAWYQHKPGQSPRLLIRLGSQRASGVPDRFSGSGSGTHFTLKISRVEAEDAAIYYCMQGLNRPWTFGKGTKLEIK
Sequence of PGT-142 (4995_E20) (antibody) (VH): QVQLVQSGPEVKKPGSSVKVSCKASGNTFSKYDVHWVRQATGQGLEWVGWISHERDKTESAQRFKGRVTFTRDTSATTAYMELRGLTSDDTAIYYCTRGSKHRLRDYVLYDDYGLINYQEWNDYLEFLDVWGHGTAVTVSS
Sequence of PGT-143 (4980_N08) (antibody) (VH): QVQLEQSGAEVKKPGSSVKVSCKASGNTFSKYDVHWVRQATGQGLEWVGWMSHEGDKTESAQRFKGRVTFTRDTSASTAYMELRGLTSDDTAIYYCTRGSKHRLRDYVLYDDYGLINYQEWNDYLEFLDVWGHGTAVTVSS
Sequence of PGT-143 (4980_N08) (antibody) (VL): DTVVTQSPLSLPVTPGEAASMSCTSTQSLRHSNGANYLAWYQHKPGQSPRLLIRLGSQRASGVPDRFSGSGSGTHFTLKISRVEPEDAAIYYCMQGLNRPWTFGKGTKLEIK

As for 4E10 (antibody), the IC90 (neutralization of pseudovirus) in assay [1] was above 50 µg/mL.
Consider PGT-144 (4970_K22) (antibody), for which the IC50, pseudovirus neutralization in assay [2] was above 10 µg/mL; in assay [3] it was 0.0934 µg/mL; in assay [4] it was above 10 µg/mL; in [5], above 10 µg/mL; in assay [6], above 10 µg/mL; in assay [7], 5.12 µg/mL. For the same substance, the values for the IC50, pseudovirus neutralization in assay [8], in assay [9] and in [10] were above 10 µg/mL, 4.02 µg/mL and above 10 µg/mL, respectively.
4877_D15 (PGT-122) (antibody): the IC50, pseudovirus neutralization in [11] was determined as 0.018 µg/mL; in [12], 0.191 µg/mL; in assay [13], 0.017 µg/mL; in assay [15], 0.992 µg/mL; in assay [16], 0.036 µg/mL; in [17] it was 0.021 µg/mL. The substance further gave an IC50 (µg/mL), pseudovirus neutralization in assay [14] of 0.195 µg/mL.
As for PGT-142 (4995_E20) (antibody), the IC50, pseudovirus neutralization in [2] was above 10 µg/mL; in [3], 0.0022 µg/mL; in assay [4] it was above 10 µg/mL; in assay [5], 0.272 µg/mL; in assay [6], above 10 µg/mL; in assay [7], 0.393 µg/mL. Also, the IC50, pseudovirus neutralization in assay [8] was above 10 µg/mL; in [9], 0.0578 µg/mL; in assay [10], 1.23 µg/mL.
The term IC50 denotes the midpoint of a concentration-inhibition curve. The low end stands for greater potency in that assay, the high end for weaker potency in that assay. Regarding b12 (antibody), the IC90 (neutralization of pseudovirus) in assay [1] is above 50 µg/mL. This substance yielded an IC50 in assay [18] above 50 µg/mL.
5141_B17 (PGT-126) (antibody): the IC50, pseudovirus neutralization in [11] was found to be 0.005 µg/mL; in assay [12], 0.0256 µg/mL; in assay [13] it was 0.015 µg/mL; in assay [15], 0.012 µg/mL; in [16], 0.008 µg/mL; in assay [17] it was 0.015 µg/mL. In addition, in assay [14], the IC50 (µg/mL), pseudovirus neutralization was above 50 µg/mL. Further, the Fold IC50 increase relative to wild-type in [19] turned out to be 5 fold.
Regarding PGT-143 (4980_N08) (antibody), the IC50, pseudovirus neutralization was above 10 µg/mL in assay [2]; 0.0028 µg/mL in [3]; above 10 µg/mL in [4]; 0.505 µg/mL in assay [5]; above 10 µg/mL in assay [6]; 0.618 µg/mL in assay [7]. Moreover, the IC50, pseudovirus neutralization was above 10 µg/mL in [8], 0.0657 µg/mL in [9] and 1.82 µg/mL in assay [10].
Take 1495_C14 (PGC14) (antibody): the IC50, Neutralizing Antibody Assay, Virus/Ab Incubation 1 hour is above 50 µg/mL in assay [20], 0.0069 µg/mL in assay [21], above 50 µg/mL in [22] and above 50 µg/mL in assay [23]. Besides, the IC50, Neutralizing Antibody Assay, Virus/Ab Incubation 18 hour was above 50 µg/mL in [20], below 0.0025 µg/mL in assay [21], 0.146 µg/mL in assay [22] and above 50 µg/mL in assay [23]. In assay [18], this substance yielded an IC50 of 6 µg/mL.
Turning to 2G12 (antibody), in assay [1], the IC90 (neutralization of pseudovirus) is above 50 µg/mL. The same substance registered an IC50 in assay [18] above 50 µg/mL.
For PGT-141 (4964_G22; 4993_K13) (antibody), the IC50, pseudovirus neutralization in [2] was above 10 µg/mL; in [3], 0.0019 µg/mL; in assay [4], above 10 µg/mL; in assay [5], 0.822 µg/mL; in [6], above 10 µg/mL; in assay [7], 0.616 µg/mL. Further, the IC50, pseudovirus neutralization in [8] was above 10 µg/mL; in assay [9], 0.0563 µg/mL; in assay [10] it was 2.35 µg/mL.
In the case of 2F5 (antibody), in [1], the IC90 (neutralization of pseudovirus) was above 50 µg/mL. In assay [18], this substance had a half-inhibitory concentration (IC50) of 4.57 µg/mL.
